Residue numbers refer to the chain shown, from its start. Numbers in names are those of the source. Blank lines part the entries; values can stand above or below the binder they belong to.
T1: Spn1(148–293)-R263D (S. cerevisiae, UniProt Q06505 148-293, R263D)
T1 sequence (looked up): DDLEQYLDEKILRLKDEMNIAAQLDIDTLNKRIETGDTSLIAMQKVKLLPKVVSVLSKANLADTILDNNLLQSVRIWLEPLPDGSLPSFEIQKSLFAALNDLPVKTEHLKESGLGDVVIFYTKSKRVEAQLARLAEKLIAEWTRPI

T2: Spt6(239–1117) (S. cerevisiae, UniProt P23615 239-1117)
T2 sequence (looked up): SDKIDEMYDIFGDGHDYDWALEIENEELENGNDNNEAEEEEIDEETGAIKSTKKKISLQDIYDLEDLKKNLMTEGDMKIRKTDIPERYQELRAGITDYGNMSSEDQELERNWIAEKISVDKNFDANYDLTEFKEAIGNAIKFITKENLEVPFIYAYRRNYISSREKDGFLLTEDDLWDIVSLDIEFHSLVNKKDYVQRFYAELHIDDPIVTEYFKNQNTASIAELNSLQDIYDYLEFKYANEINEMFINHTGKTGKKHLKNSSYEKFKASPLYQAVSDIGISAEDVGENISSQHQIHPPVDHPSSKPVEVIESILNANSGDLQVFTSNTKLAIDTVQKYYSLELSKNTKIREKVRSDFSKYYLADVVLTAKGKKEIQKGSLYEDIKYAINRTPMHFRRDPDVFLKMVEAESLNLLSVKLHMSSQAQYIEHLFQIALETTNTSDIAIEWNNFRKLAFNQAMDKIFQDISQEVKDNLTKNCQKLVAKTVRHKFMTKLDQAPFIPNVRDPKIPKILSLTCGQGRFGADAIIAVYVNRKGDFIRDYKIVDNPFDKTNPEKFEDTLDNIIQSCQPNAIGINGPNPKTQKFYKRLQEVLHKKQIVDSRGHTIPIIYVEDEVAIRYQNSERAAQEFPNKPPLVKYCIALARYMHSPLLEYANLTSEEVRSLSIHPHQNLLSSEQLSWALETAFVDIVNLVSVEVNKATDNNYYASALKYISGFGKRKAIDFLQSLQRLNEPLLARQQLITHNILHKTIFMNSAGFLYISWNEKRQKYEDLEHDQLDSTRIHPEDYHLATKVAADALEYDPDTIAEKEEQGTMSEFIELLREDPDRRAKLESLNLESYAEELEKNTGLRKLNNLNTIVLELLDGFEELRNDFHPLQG

B1: Spn1(148–293) (domain or fragment, S. cerevisiae, UniProt Q06505 148-293, looked up)
chain: T1 sequence (looked up) with D116R

Legend:
Test in all cases: ITC
Spn1(148–293) = biological target: B1
Spn1(148–293)-R263D = biological target: T1, Spn1(148–293)-R263D
Spt6(239–1117) = biological target: T2, Spt6(239–1117)

stoichiometry N (Spn1(148–293)): 1
Kd (Spn1(148–293)-R263D): 30 µM
Binder: SDKIDEMYDIFGDGHDYDWALEIENEELEN (domain or fragment, S. cerevisiae, UniProt P23615 239-268, looked up) [Spt6(239–268)]

Kd (Spn1(148–293)): 11 µM
Binder: SDKIDEMYDIKGDGHDYDWALEIENEELEN (domain or fragment, S. cerevisiae, UniProt P23615 239-268, looked up) [Spt6(239–268)-F249K]

Binder: B1
stoichiometry N (Spt6(239–1117)): 1

Reference: publication PMC3017428 (Molecular cell, 2010)
